In patent US20210388087A1 (Chugai, published 2021):

B1: dBBDu183H S99R / dBBDu072L (antibody, name in Kabat numbering, V domains shown)
VH: QVQLVESGGGLVQPGRSLRLSCAASGFTFSNAWMHWVRQAPGKGLEWVAQIKDKGNAYAAYYAPSVKGRFTISRDDSKNSIYLQMNSLKTEDTAVYYCHYVHYARASTVLPAFGVDAWGQGTTVTVSS
VL: DIVMTQSPLSLPVTPGEPASISCQASQELVHMNRNTYLHWYQQKPGQAPRLLIYKVSNRFPGVPDRFSGSGSGTDFTLKISRVEAEDVGVYYCAQGTSVPFTFGQGTKLEIK
notes: as m1, one VH change
B2: dBBDu183H V100cH / dBBDu072L (antibody, name in Kabat numbering, V domains shown)
VH: QVQLVESGGGLVQPGRSLRLSCAASGFTFSNAWMHWVRQAPGKGLEWVAQIKDKGNAYAAYYAPSVKGRFTISRDDSKNSIYLQMNSLKTEDTAVYYCHYVHYASASTHLPAFGVDAWGQGTTVTVSS
VL: DIVMTQSPLSLPVTPGEPASISCQASQELVHMNRNTYLHWYQQKPGQAPRLLIYKVSNRFPGVPDRFSGSGSGTDFTLKISRVEAEDVGVYYCAQGTSVPFTFGQGTKLEIK
notes: as m1, one VH change
B3: dBBDu183H S99Y / dBBDu072L (antibody, name in Kabat numbering, V domains shown)
VH: QVQLVESGGGLVQPGRSLRLSCAASGFTFSNAWMHWVRQAPGKGLEWVAQIKDKGNAYAAYYAPSVKGRFTISRDDSKNSIYLQMNSLKTEDTAVYYCHYVHYAYASTVLPAFGVDAWGQGTTVTVSS
VL: DIVMTQSPLSLPVTPGEPASISCQASQELVHMNRNTYLHWYQQKPGQAPRLLIYKVSNRFPGVPDRFSGSGSGTDFTLKISRVEAEDVGVYYCAQGTSVPFTFGQGTKLEIK
notes: as m1, one VH change
B4: dBBDu183H V63S / dBBDu072L (antibody, name in Kabat numbering, V domains shown)
VH: QVQLVESGGGLVQPGRSLRLSCAASGFTFSNAWMHWVRQAPGKGLEWVAQIKDKGNAYAAYYAPSSKGRFTISRDDSKNSIYLQMNSLKTEDTAVYYCHYVHYASASTVLPAFGVDAWGQGTTVTVSS
VL: DIVMTQSPLSLPVTPGEPASISCQASQELVHMNRNTYLHWYQQKPGQAPRLLIYKVSNRFPGVPDRFSGSGSGTDFTLKISRVEAEDVGVYYCAQGTSVPFTFGQGTKLEIK
notes: as m1, one VH change
B5: dBBDu183H V63G / dBBDu072L (antibody, name in Kabat numbering, V domains shown)
VH: QVQLVESGGGLVQPGRSLRLSCAASGFTFSNAWMHWVRQAPGKGLEWVAQIKDKGNAYAAYYAPSGKGRFTISRDDSKNSIYLQMNSLKTEDTAVYYCHYVHYASASTVLPAFGVDAWGQGTTVTVSS
VL: DIVMTQSPLSLPVTPGEPASISCQASQELVHMNRNTYLHWYQQKPGQAPRLLIYKVSNRFPGVPDRFSGSGSGTDFTLKISRVEAEDVGVYYCAQGTSVPFTFGQGTKLEIK
notes: as m1, one VH change
B6: dBBDu183H V63T / dBBDu072L (antibody, name in Kabat numbering, V domains shown)
VH: QVQLVESGGGLVQPGRSLRLSCAASGFTFSNAWMHWVRQAPGKGLEWVAQIKDKGNAYAAYYAPSTKGRFTISRDDSKNSIYLQMNSLKTEDTAVYYCHYVHYASASTVLPAFGVDAWGQGTTVTVSS
VL: DIVMTQSPLSLPVTPGEPASISCQASQELVHMNRNTYLHWYQQKPGQAPRLLIYKVSNRFPGVPDRFSGSGSGTDFTLKISRVEAEDVGVYYCAQGTSVPFTFGQGTKLEIK
notes: as m1, one VH change
B7: dBBDu183H T100bS / dBBDu072L (antibody, name in Kabat numbering, V domains shown)
VH: QVQLVESGGGLVQPGRSLRLSCAASGFTFSNAWMHWVRQAPGKGLEWVAQIKDKGNAYAAYYAPSVKGRFTISRDDSKNSIYLQMNSLKTEDTAVYYCHYVHYASASSVLPAFGVDAWGQGTTVTVSS
VL: DIVMTQSPLSLPVTPGEPASISCQASQELVHMNRNTYLHWYQQKPGQAPRLLIYKVSNRFPGVPDRFSGSGSGTDFTLKISRVEAEDVGVYYCAQGTSVPFTFGQGTKLEIK
notes: as m1, one VH change
B8: dBBDu183H T100bN / dBBDu072L (antibody, name in Kabat numbering, V domains shown)
VH: QVQLVESGGGLVQPGRSLRLSCAASGFTFSNAWMHWVRQAPGKGLEWVAQIKDKGNAYAAYYAPSVKGRFTISRDDSKNSIYLQMNSLKTEDTAVYYCHYVHYASASNVLPAFGVDAWGQGTTVTVSS
VL: DIVMTQSPLSLPVTPGEPASISCQASQELVHMNRNTYLHWYQQKPGQAPRLLIYKVSNRFPGVPDRFSGSGSGTDFTLKISRVEAEDVGVYYCAQGTSVPFTFGQGTKLEIK
notes: as m1, one VH change
B9: dBBDu183H V63N / dBBDu072L (antibody, name in Kabat numbering, V domains shown)
VH: QVQLVESGGGLVQPGRSLRLSCAASGFTFSNAWMHWVRQAPGKGLEWVAQIKDKGNAYAAYYAPSNKGRFTISRDDSKNSIYLQMNSLKTEDTAVYYCHYVHYASASTVLPAFGVDAWGQGTTVTVSS
VL: DIVMTQSPLSLPVTPGEPASISCQASQELVHMNRNTYLHWYQQKPGQAPRLLIYKVSNRFPGVPDRFSGSGSGTDFTLKISRVEAEDVGVYYCAQGTSVPFTFGQGTKLEIK
notes: as m1, one VH change
B10: dBBDu183H V63D / dBBDu072L (antibody, name in Kabat numbering, V domains shown)
VH: QVQLVESGGGLVQPGRSLRLSCAASGFTFSNAWMHWVRQAPGKGLEWVAQIKDKGNAYAAYYAPSDKGRFTISRDDSKNSIYLQMNSLKTEDTAVYYCHYVHYASASTVLPAFGVDAWGQGTTVTVSS
VL: DIVMTQSPLSLPVTPGEPASISCQASQELVHMNRNTYLHWYQQKPGQAPRLLIYKVSNRFPGVPDRFSGSGSGTDFTLKISRVEAEDVGVYYCAQGTSVPFTFGQGTKLEIK
notes: as m1, one VH change
B11: dBBDu183H S99T / dBBDu072L (antibody, name in Kabat numbering, V domains shown)
VH: QVQLVESGGGLVQPGRSLRLSCAASGFTFSNAWMHWVRQAPGKGLEWVAQIKDKGNAYAAYYAPSVKGRFTISRDDSKNSIYLQMNSLKTEDTAVYYCHYVHYATASTVLPAFGVDAWGQGTTVTVSS
VL: DIVMTQSPLSLPVTPGEPASISCQASQELVHMNRNTYLHWYQQKPGQAPRLLIYKVSNRFPGVPDRFSGSGSGTDFTLKISRVEAEDVGVYYCAQGTSVPFTFGQGTKLEIK
notes: as m1, one VH change
B12: dBBDu183H V63E / dBBDu072L (antibody, name in Kabat numbering, V domains shown)
VH: QVQLVESGGGLVQPGRSLRLSCAASGFTFSNAWMHWVRQAPGKGLEWVAQIKDKGNAYAAYYAPSEKGRFTISRDDSKNSIYLQMNSLKTEDTAVYYCHYVHYASASTVLPAFGVDAWGQGTTVTVSS
VL: DIVMTQSPLSLPVTPGEPASISCQASQELVHMNRNTYLHWYQQKPGQAPRLLIYKVSNRFPGVPDRFSGSGSGTDFTLKISRVEAEDVGVYYCAQGTSVPFTFGQGTKLEIK
notes: as m1, one VH change
B13: dBBDu183H V100cE / dBBDu072L (antibody, name in Kabat numbering, V domains shown)
VH: QVQLVESGGGLVQPGRSLRLSCAASGFTFSNAWMHWVRQAPGKGLEWVAQIKDKGNAYAAYYAPSVKGRFTISRDDSKNSIYLQMNSLKTEDTAVYYCHYVHYASASTELPAFGVDAWGQGTTVTVSS
VL: DIVMTQSPLSLPVTPGEPASISCQASQELVHMNRNTYLHWYQQKPGQAPRLLIYKVSNRFPGVPDRFSGSGSGTDFTLKISRVEAEDVGVYYCAQGTSVPFTFGQGTKLEIK
notes: as m1, one VH change
B14: dBBDu183H V63R / dBBDu072L (antibody, name in Kabat numbering, V domains shown)
VH: QVQLVESGGGLVQPGRSLRLSCAASGFTFSNAWMHWVRQAPGKGLEWVAQIKDKGNAYAAYYAPSRKGRFTISRDDSKNSIYLQMNSLKTEDTAVYYCHYVHYASASTVLPAFGVDAWGQGTTVTVSS
VL: DIVMTQSPLSLPVTPGEPASISCQASQELVHMNRNTYLHWYQQKPGQAPRLLIYKVSNRFPGVPDRFSGSGSGTDFTLKISRVEAEDVGVYYCAQGTSVPFTFGQGTKLEIK
notes: as m1, one VH change
B15: dBBDu183H V63Q / dBBDu072L (antibody, name in Kabat numbering, V domains shown)
VH: QVQLVESGGGLVQPGRSLRLSCAASGFTFSNAWMHWVRQAPGKGLEWVAQIKDKGNAYAAYYAPSQKGRFTISRDDSKNSIYLQMNSLKTEDTAVYYCHYVHYASASTVLPAFGVDAWGQGTTVTVSS
VL: DIVMTQSPLSLPVTPGEPASISCQASQELVHMNRNTYLHWYQQKPGQAPRLLIYKVSNRFPGVPDRFSGSGSGTDFTLKISRVEAEDVGVYYCAQGTSVPFTFGQGTKLEIK
notes: as m1, one VH change
B16: dBBDu183H T100bQ / dBBDu072L (antibody, name in Kabat numbering, V domains shown)
VH: QVQLVESGGGLVQPGRSLRLSCAASGFTFSNAWMHWVRQAPGKGLEWVAQIKDKGNAYAAYYAPSVKGRFTISRDDSKNSIYLQMNSLKTEDTAVYYCHYVHYASASQVLPAFGVDAWGQGTTVTVSS
VL: DIVMTQSPLSLPVTPGEPASISCQASQELVHMNRNTYLHWYQQKPGQAPRLLIYKVSNRFPGVPDRFSGSGSGTDFTLKISRVEAEDVGVYYCAQGTSVPFTFGQGTKLEIK
notes: as m1, one VH change
B17: dBBDu183H V63H / dBBDu072L (antibody, name in Kabat numbering, V domains shown)
VH: QVQLVESGGGLVQPGRSLRLSCAASGFTFSNAWMHWVRQAPGKGLEWVAQIKDKGNAYAAYYAPSHKGRFTISRDDSKNSIYLQMNSLKTEDTAVYYCHYVHYASASTVLPAFGVDAWGQGTTVTVSS
VL: DIVMTQSPLSLPVTPGEPASISCQASQELVHMNRNTYLHWYQQKPGQAPRLLIYKVSNRFPGVPDRFSGSGSGTDFTLKISRVEAEDVGVYYCAQGTSVPFTFGQGTKLEIK
notes: as m1, one VH change
B18: dBBDu183H V63W / dBBDu072L (antibody, name in Kabat numbering, V domains shown)
VH: QVQLVESGGGLVQPGRSLRLSCAASGFTFSNAWMHWVRQAPGKGLEWVAQIKDKGNAYAAYYAPSWKGRFTISRDDSKNSIYLQMNSLKTEDTAVYYCHYVHYASASTVLPAFGVDAWGQGTTVTVSS
VL: DIVMTQSPLSLPVTPGEPASISCQASQELVHMNRNTYLHWYQQKPGQAPRLLIYKVSNRFPGVPDRFSGSGSGTDFTLKISRVEAEDVGVYYCAQGTSVPFTFGQGTKLEIK
notes: as m1, one VH change
B19: dBBDu183H V63F / dBBDu072L (antibody, name in Kabat numbering, V domains shown)
VH: QVQLVESGGGLVQPGRSLRLSCAASGFTFSNAWMHWVRQAPGKGLEWVAQIKDKGNAYAAYYAPSFKGRFTISRDDSKNSIYLQMNSLKTEDTAVYYCHYVHYASASTVLPAFGVDAWGQGTTVTVSS
VL: DIVMTQSPLSLPVTPGEPASISCQASQELVHMNRNTYLHWYQQKPGQAPRLLIYKVSNRFPGVPDRFSGSGSGTDFTLKISRVEAEDVGVYYCAQGTSVPFTFGQGTKLEIK
notes: as m1, one VH change
B20: dBBDu183H V63K / dBBDu072L (antibody, name in Kabat numbering, V domains shown)
VH: QVQLVESGGGLVQPGRSLRLSCAASGFTFSNAWMHWVRQAPGKGLEWVAQIKDKGNAYAAYYAPSKKGRFTISRDDSKNSIYLQMNSLKTEDTAVYYCHYVHYASASTVLPAFGVDAWGQGTTVTVSS
VL: DIVMTQSPLSLPVTPGEPASISCQASQELVHMNRNTYLHWYQQKPGQAPRLLIYKVSNRFPGVPDRFSGSGSGTDFTLKISRVEAEDVGVYYCAQGTSVPFTFGQGTKLEIK
notes: as m1, one VH change

Each binder was assayed against T1, Human CD137 ECD (human) (assay: SPR, vs parent H183/L072).
T1 construct: also called 4-1BB
T1 sequence (chain, as listed by the source limits assumed): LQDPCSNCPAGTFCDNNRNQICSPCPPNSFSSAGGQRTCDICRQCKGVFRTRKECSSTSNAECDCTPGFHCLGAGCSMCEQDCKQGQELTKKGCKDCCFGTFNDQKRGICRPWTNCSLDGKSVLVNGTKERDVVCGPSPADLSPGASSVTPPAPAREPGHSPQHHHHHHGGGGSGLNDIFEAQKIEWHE
B1 was tested, and the “fold change of affinity” value was 1.1 fold. With B2 the “fold change of affinity” value was 0.5 fold. In the case of B3, the “fold change of affinity” value is reported as 0.5 fold. With B4 the “fold change of affinity” value was 0.9 fold. In the case of B5, the “fold change of affinity” value is reported as 1.3 fold. In the case of B6, the “fold change of affinity” value is reported as 0.9 fold. With B7 the “fold change of affinity” value was 1 fold. With B8 the “fold change of affinity” value was 0.1 fold. In the case of B9, the “fold change of affinity” value is reported as 0.9 fold. B10 was tested, and the “fold change of affinity” value was 0.9 fold. With B11 the “fold change of affinity” value was 0.6 fold. With B12 the “fold change of affinity” value was 0.9 fold. B13 was tested, and the “fold change of affinity” value was 0.5 fold. With B14 the “fold change of affinity” value was 1 fold. With B15 the “fold change of affinity” value was 1.3 fold. With B16 the “fold change of affinity” value was 0.3 fold. With B17 the “fold change of affinity” value was 1 fold. For B18, the “fold change of affinity” value was 1 fold. For B19, the “fold change of affinity” value was 0.9 fold. In the case of B20, the “fold change of affinity” value is reported as 0.8 fold.
